Source: PMC3350866 (Oncogene, 2006)

Target: baculovirus-expressed human Dnmt1 (human, UniProt P26358 1-1616)
Assay: pull-down

Chain of baculovirus-expressed human Dnmt1 (P26358 whole entry): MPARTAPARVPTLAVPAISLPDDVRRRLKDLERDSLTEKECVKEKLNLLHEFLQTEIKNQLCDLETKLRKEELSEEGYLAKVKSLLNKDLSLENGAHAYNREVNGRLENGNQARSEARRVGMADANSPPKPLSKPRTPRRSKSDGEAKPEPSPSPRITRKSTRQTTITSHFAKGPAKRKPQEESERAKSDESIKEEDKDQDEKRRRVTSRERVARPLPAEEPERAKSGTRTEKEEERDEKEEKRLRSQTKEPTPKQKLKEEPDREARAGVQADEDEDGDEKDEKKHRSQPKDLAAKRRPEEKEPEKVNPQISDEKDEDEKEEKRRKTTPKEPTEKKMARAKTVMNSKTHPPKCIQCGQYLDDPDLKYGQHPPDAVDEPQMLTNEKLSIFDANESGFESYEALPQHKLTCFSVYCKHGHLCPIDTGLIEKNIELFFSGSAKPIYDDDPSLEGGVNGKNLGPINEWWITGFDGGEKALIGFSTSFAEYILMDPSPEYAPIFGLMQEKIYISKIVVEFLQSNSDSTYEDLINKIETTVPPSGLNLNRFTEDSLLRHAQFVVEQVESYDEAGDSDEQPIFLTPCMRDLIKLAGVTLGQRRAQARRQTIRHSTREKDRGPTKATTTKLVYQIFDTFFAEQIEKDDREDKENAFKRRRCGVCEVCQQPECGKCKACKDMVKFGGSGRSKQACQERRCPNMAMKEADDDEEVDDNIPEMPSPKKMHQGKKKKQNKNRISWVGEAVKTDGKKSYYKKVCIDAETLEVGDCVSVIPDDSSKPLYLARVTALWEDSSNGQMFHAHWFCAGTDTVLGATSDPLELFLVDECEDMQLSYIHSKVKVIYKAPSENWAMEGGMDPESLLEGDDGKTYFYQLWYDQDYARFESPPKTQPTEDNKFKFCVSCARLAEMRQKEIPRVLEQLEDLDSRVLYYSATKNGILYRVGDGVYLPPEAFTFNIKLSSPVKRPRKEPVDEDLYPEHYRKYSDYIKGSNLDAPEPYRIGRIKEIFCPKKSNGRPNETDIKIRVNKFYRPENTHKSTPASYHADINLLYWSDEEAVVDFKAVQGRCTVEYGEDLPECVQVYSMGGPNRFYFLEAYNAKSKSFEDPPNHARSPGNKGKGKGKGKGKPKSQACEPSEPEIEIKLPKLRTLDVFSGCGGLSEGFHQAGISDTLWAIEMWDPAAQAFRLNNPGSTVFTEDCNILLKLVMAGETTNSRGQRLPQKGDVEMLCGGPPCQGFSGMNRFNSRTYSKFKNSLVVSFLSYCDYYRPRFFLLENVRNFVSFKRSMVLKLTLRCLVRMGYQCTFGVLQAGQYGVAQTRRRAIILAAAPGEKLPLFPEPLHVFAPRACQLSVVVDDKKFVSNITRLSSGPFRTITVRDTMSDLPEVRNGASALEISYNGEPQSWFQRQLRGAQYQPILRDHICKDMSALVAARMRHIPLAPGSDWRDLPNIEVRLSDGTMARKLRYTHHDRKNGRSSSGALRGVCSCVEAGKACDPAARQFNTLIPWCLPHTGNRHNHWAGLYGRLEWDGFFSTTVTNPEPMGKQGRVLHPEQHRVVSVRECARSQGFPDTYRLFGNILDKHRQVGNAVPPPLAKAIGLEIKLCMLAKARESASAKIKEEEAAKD

B1: GST-E7 (HPV-16 E7) (natural protein, UniProt P03129 1-98, looked up)
chain: MHGDTPTLHEYMLDLQPETTDLYCYEQLNDSSEEEDEIDGPAGQAEPDRAHYNIVTFCCKCDSTLRLCVQSTHVDIRTLEDLLMGTLGIVCPICSQKP
B1: binds.
